{
  "source": "paper PMC12575793",
  "binders": {"B1": {"name": "FAM-labeled CRP aptamer (ssDNA)", "DNA": "GGCAGGAAGACAAACATATAATTGAGATCGTTTGATGACTTTGTAAGAGTGTGGAATGGTCTGTGGTGCTGT"}},
  "target": "T1, C-reactive protein (CRP) (UniProt P02741 19-224)",
  "T1 sequence": "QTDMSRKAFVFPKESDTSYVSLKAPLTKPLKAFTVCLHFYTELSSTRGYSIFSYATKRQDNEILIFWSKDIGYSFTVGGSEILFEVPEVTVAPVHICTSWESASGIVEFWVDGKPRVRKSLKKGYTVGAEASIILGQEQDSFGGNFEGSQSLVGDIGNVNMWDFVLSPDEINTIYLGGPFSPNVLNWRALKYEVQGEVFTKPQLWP",
  "assay": "fluorescence recovery from graphene oxide",
  "data": [
    {"binder": "B1", "values": [
      {"measurement": "binding result", "result": "binds"}
    ]}
  ]
}
